For series [1], the target named is N-protein WT (NWT) (SARS-CoV-2, UniProt P0DTC9 1-419). The series is described as follows: SV-AUC; […], pH 7.4; […], pH 7.4; […], pH 7.50; temperature not given. As to conditions: protein: recombinant; tags: N-terminal 6xHis-TEV, cleaved; chain copies: 2; single strand.
In series [2] the target is CTD (SARS-CoV-2, UniProt P0DTC9 247-364). Described as above. As to conditions: protein: recombinant; tags: N-terminal 6xHis-TEV, cleaved; chain copies: 2; single strand.

As for TTTTTTTTTT (ssDNA) [T10], the binding result in series [1] is given as “binds”.

Turning to TTTTTTTTTTTTTTTTTTTTTTTTTTTTTTTTTTTTTTTT (ssDNA) [T40], the binding result in series [1] and in series [2] was “binds” throughout.

The record behind these values is publication doi:10.1101/2023.11.22.568361.
